Data on four compounds can be found in paper PMC10919079, “Biosynthesis of UDP-α-N-Acetyl-D-mannosaminuronic Acid and CMP-β-N-Acetyl-D-neuraminic Acid for the Capsular Polysaccharides of Campylobacter jejuni” (Biochemistry, 2024).

Series [1] concerns the target T1, CMP-Neu5Ac synthase (HS6.5) (Campylobacter jejuni, UniProt P0DY07).
T1 construct: full-length synthetic codon-optimised gene, N-terminal His6 tag kept, pET-28a(+), E. coli BL21(DE3)
Briefly: anion exchange chromatography, NMR and MS of CMP-Neu5Ac product. Format: biochemical. To be noted: pH 7.5; Neu5Ac co-substrate, MgCl2, pyrophosphatase.

Series [2] relates to CC(=O)N[C@@H]1[C@@H](OP(=O)(O)OP(=O)(O)OC[C@H]2O[C@@H](n3ccc(=O)[nH]c3=O)[C@H](O)[C@@H]2O)O[C@H](CO)[C@@H](O)[C@@H]1O. Briefly: purified protein. Particulars: pH 7.5, 25 °C, same buffer, 2.0 mM NAD+, 2.0 mM DTT, UDP-ManNAc generated in situ from UDP-GlcNAc with excess C2-epimerase (10 μM).
Series [3] deals with CC(=O)N[C@H]1[C@@H](OP(=O)(O)OP(=O)(O)OC[C@H]2O[C@@H](n3ccc(=O)[nH]c3=O)[C@H](O)[C@@H]2O)O[C@H](CO)[C@@H](O)[C@@H]1O. Briefly: purified protein. Particulars: pH 7.5, 25 °C.
Setting [4] is: same buffer, 10 mM MgCl2, 2.0 mM PEP, 300 μM NADH.
The mark [5] stands for this setting: 50 mM HEPES, 250 mM KCl, 5% glycerol, excess C6-dehydrogenase (10 μM), 2.0 mM NAD+, 2.0 mM DTT.

T1 sequence (P0DY07 whole entry): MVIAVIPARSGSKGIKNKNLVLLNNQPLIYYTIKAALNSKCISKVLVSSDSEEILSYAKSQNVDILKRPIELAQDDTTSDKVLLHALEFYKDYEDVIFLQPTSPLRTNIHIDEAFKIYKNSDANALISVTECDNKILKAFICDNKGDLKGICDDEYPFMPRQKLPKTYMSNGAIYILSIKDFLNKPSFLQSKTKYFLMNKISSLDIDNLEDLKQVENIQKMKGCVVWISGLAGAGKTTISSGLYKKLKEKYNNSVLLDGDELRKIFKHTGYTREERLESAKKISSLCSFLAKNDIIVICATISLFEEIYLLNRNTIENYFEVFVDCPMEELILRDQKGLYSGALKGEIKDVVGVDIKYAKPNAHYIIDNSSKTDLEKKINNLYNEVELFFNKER

In the case of `Nc1ccn([C@@H]2O[C@H](COP(=O)(O)OP(=O)(O)OP(=O)(O)O)[C@@H](O)[C@H]2O)c(=O)n1` [CTP], the “anion exchange chromatography, NMR and MS of CMP-Neu5Ac product” value in series [1] is given as “CMP-Neu5Ac synthase using CTP as the nucleotide donor”.

“UDP-ManNAc C6-dehydrogenase (HS11.16) (Campylobacter jejuni)”: in series [2], the Km was 22 ± 1 µM, the kcat was determined as 0.2 ± 0.01 s⁻¹ and the specificity constant (kcat/Km) was determined as 8700 ± 400 M⁻¹ s⁻¹.

As for “hydrolyzing UDP-GlcNAc C2-epimerase (HS6.10) (Campylobacter jejuni subsp. jejuni 81116)”, in series [3] (setting [4]), the Km was 160 ± 10 µM, the kcat came to 3.1 ± 0.1 s⁻¹ and the kcat/Km stood at 19900 ± 1000 M⁻¹ s⁻¹.

With “nonhydrolyzing UDP-GlcNAc C2-epimerase (HS11.17) (Campylobacter jejuni)”, in series [3] (setting [5]), the Km came out at 1370 ± 50 µM, the kcat was determined as 5.7 ± 0.2 s⁻¹ and the kcat/Km is 4200 ± 200 M⁻¹ s⁻¹.

As usually defined, the Km is the concentration of substrate that gives half-maximal velocity. Broadly, the kcat is the number of substrate molecules converted per active site and unit of time at saturation. By kcat/Km is commonly meant the second-order rate constant that governs catalysis at low substrate concentration.
